Test results reported in patent US20200283539A1.

Molecular target: CD33 on HL60 leukemia cells (human) (UniProt P20138)
Assay: cell-based or functional assay

Chain of CD33 on HL60 leukemia cells (human) (P20138 18-364 limits assumed): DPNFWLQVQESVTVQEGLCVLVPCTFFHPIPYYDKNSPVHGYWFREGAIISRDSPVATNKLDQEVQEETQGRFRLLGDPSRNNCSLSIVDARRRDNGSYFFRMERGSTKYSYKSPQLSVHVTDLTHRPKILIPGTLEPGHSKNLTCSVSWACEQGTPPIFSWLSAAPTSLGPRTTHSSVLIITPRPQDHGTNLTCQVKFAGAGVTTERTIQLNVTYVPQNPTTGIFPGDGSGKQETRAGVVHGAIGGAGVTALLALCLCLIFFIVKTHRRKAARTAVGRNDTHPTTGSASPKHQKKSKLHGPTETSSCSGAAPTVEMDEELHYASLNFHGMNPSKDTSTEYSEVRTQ

## Lintuzumab conjugated with Actinium-225 (antibody)
  LD50 (dose at which 50% of the cells were killed), HL60 cell suspension: 8 pCi/mL
